This note sets out measurements from PMC9977294, “A parasitic fungus employs mutated eIF4A to survive on rocaglate-synthesizing Aglaia plants”.

Broadly, the Kd is the equilibrium constant for the complex coming apart.

For one series, the target named is eIF4A1 Phe163His (Homo sapiens, UniProt P60842 1-406, F163H). Kind of series: fluorescence polarization; 1 mM AMP-PNP, DMSO; 20 mM HEPES-NaOH pH 7.5, 150 mM NaCl, 1 mM MgCl2, 1 mM DTT, 5% glycerol, 1% DMSO, 10 nM FAM-RNA, 0-25 uM protein (source data up to 50), 1 mM AMP-PNP or 1 mM ADP + 1 mM Na2HPO4, room temperature 30 min; Hill fit, n = 3. As to conditions: protein: recombinant; tags: His; single strand. In general terms: In fluorescence polarisation assays a small probe gives low polarisation when free and higher when bound to something large.

Another series concerns the target eIF4A1 Phe163Gly (Homo sapiens, UniProt P60842 1-406, F163G). The description is as above. As to conditions: protein: recombinant; tags: His; single strand.

Chain of eIF4A1 Phe163His (P60842 whole entry F163H): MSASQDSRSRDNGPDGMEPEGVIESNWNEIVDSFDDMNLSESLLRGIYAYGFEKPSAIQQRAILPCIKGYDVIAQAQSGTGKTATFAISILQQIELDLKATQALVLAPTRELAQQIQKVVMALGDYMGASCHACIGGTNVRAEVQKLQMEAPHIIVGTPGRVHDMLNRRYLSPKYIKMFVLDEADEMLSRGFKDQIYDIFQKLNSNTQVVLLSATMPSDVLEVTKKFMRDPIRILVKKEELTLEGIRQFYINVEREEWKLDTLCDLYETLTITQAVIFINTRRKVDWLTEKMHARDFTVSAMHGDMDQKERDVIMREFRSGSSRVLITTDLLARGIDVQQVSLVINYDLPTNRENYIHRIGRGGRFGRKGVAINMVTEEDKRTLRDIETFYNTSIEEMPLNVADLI
Chain of eIF4A1 Phe163Gly (P60842 whole entry F163G): as the sequence (P60842 whole entry F163H) above, with H163G counted along it

For AGAGAGAGAGAGAGAGAGAG (ssRNA) [[AG]10 polypurine RNA], the Kd turned out to be 16 ± 2.7 µM in the series with eIF4A1 Phe163His and 21 ± 6.7 µM with eIF4A1 Phe163Gly.
